One experiment deals with Atg11 (UniProt Q12527). The experiment can be described thus: anti-FLAG co-IP, anti-HA blot. The settings on record: reference: wild-type 3×HA-Cct2; sites S412,S470.
The next experiment concerns the target LC3C (UniProt Q9BXW4). The experiment can be described thus: anti-FLAG co-IP, anti-HA blot. The settings on record: reference: HA-CCT2 wild type; sites S458.
The next experiment concerns the target T1, GST-Cct2 I487E (S. cerevisiae, UniProt P39076 1-527, I487E).
T1 construct: Cct2, S. cerevisiae; also called pGEX-4T-1-Cct2 I487E; source: E. coli, purified; not shown: GST, N-terminal, kept
The experiment can be described thus: pull-down; in vitro GST pulldown: GST-tagged protein on GST beads, prey added in binding buffer B (1 mM EDTA, 1 mM EGTA, 150 mM NaCl, 1% Triton X-100 in 1×PBS), 3 h, 4 °C; SDS-PAGE, Coomassie staining. The following applies: both partners purified.

Experiment [1] concerns the target T2, GST-Cct2 S412A-S470A (2A) (S. cerevisiae, UniProt P39076 1-527, S412A | S470A).
T2 construct: Cct2, S. cerevisiae; also called Cct2-2A mutant protein; pGEX-4T-1-Cct2 S412A-S470A(2A); source: E. coli, purified; not shown: GST, N-terminal, kept
Described as above. The following applies: both partners purified.

For another experiment, the target named is T3, GST-Cct2 D473A (S. cerevisiae, UniProt P39076 1-527, D473A).
T3 construct: Cct2, S. cerevisiae; also called pGEX-4T-1-Cct2 D473A; source: E. coli, purified; not shown: GST, N-terminal, kept
T3 sequence (P39076 whole entry D473A): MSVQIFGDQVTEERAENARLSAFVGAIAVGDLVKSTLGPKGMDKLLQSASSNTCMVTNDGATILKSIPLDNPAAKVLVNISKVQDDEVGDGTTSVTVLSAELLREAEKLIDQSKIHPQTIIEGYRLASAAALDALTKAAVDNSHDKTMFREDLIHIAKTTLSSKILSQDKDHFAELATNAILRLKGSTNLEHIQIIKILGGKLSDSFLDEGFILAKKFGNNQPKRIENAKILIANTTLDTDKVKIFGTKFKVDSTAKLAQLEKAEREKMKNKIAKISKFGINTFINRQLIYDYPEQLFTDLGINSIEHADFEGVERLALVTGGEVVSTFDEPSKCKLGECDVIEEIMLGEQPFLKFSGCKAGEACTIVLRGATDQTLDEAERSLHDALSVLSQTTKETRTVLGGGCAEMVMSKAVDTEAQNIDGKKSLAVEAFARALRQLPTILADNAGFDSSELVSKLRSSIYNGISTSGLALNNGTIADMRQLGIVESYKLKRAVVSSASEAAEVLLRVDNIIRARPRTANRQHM
Described as above. The settings on record: both partners purified.

A further experiment addresses T4, GST-Cct2 (S. cerevisiae, UniProt P39076 1-527).
T4 construct: Cct2, subunit of the TRiC complex, S. cerevisiae; the CCT2 gene cloned into pGEX-4T-1; also called WT GST-Cct2; pGEX-4T-1-Cct2; source: E. coli, purified; not shown: GST, N-terminal, kept
The experiment is described as above. The following applies: both partners purified.

Experiment [2] deals with T5, GST-Cct2 phosphorylated in vitro by Atg1 (S. cerevisiae, UniProt P39076 1-527, phosphorylated by Atg1; the paper maps the sites to S412 and S470).
T5 construct: Cct2, S. cerevisiae; also called phosphorylated GST-Cct2 WT; phosphorylated products; source: E. coli, purified, then incubated with WT Atg1-3×FLAG (from yeast) and ATP and enriched on GST beads; not shown: GST, N-terminal, kept
T5 sequence (P39076 whole entry): as the sequence (P39076 whole entry D473A) above, with A473D counted along it
The experiment can be described thus: pull-down; GST-Cct2 first incubated with Atg1-3×FLAG and ATP (30 °C, 30 min), enriched on GST beads, then His-Atg8 or Atg11 CC4 added in interaction buffer (1 mM EDTA, 1 mM EGTA, 150 mM NaCl, 1% Triton X-100 in 1×PBS), 2 h, 4 °C; Coomassie staining. The settings on record: both partners purified.

T4 sequence (P39076 whole entry): as the sequence (P39076 whole entry D473A) above, with A473D counted along it
T1 sequence (P39076 whole entry I487E): as the sequence (P39076 whole entry D473A) above, with A473D, I487E counted along it
T2 sequence (P39076 whole entry S412A/S470A): as the sequence (P39076 whole entry D473A) above, with S412A, S470A, A473D counted along it

On to “Cct2 (from UniProt P39076) 3×HA-Cct2 S412A-S470A”, for which the “binding against the reference” value with Atg11 is listed as “weaker”.

With “CCT2 (hCCT2) (from UniProt P78371) HA-CCT2 S458A”, in the experiment with LC3C, the “binding against the reference” value is listed as “weaker”.

B1: His-Atg8 (natural protein, S. cerevisiae, UniProt P38182 1-117, looked up)
chain: MKSTFKSEYPFEKRKAESERIADRFKNRIPVICEKAEKSDIPEIDKRKYLVPADLTVGQFVYVIRKRIMLPPEKAIFIFVNDTLPPTAALMSAIYQEHKDKDGFLYVTYSGENTFGR
notes: Atg8, S. cerevisiae; source: E. coli, purified; not shown: His, N-terminal, kept
B1: the binding result (with GST-Cct2 I487E; in experiment [1]; with GST-Cct2 D473A; with GST-Cct2; in experiment [2]) was “binds” throughout.

Source of the values: article PMC11549370, “Two distinct regulatory pathways govern Cct2-Atg8 binding in the process of solid aggrephagy” (EMBO Reports, 2024).
